Assay results taken from paper PMC11480083.
Numbering of substitutions follows the chain as printed. Numbers in names are those of the source.

Experiments:
[1] = system: O=C(c1ccc(O)cc1O)c1ccc(O)cc1O; assay: purified protein; settings: 4 mM UDP-Glc, 100 mM Kpi pH 8.0, 30 °C
purified protein = substrate: O=C(c1ccc(O)cc1O)c1ccc(O)cc1O; assay: purified protein
[2] = substrate: O=C(c1ccc(O)cc1O)c1ccc(O)cc1O; assay: steady-state kinetics, HPLC; format: biochemical, Citrus japonica; settings: UDP-Glc donor
[3] = substrate: O=C(c1ccc(O)cc1O)c1ccc(O)cc1O; assay: steady-state kinetics, HPLC; format: biochemical, Nelumbo nucifera; settings: UDP-Glc donor
[4] = substrate: O=C(c1ccc(O)cc1O)c1ccc(O)cc1O; assay: steady-state kinetics, HPLC; format: biochemical, Gardenia jasminoides; settings: UDP-Glc donor

## MiCGT (Mangifera indica)
[1]
  Km: 430 ± 155 µM
  kcat: 0.00848 ± 0.00147 s⁻¹

## MiCGT (Mangifera indica; E152Q)
[1]
  Km: 176 ± 25 µM

## MiCGT (Mangifera indica; E152Q/S122P/V190D)
[1]
  Km: 36 ± 3 µM
  kcat: 0.1579 ± 0.00172 s⁻¹

## MiCGT (Mangifera indica; E152Q/V190D)
[1]
  Km: 189 ± 21 µM

## MiCGT (Mangifera indica; M148A)
[1]
  Km: 269 ± 49 µM

## MiCGT (Mangifera indica; M148A/S121D/V190T)
[1]
  Km: 249 ± 30 µM
  kcat: 0.51143 ± 0.0157 s⁻¹

## MiCGT (Mangifera indica; M148A/V190T)
[1]
  Km: 317 ± 100 µM

B1: FcCGT (Citrus japonica; A189D/T149Q) (protein)
chain: MSDSGGFDSHPHVALIPSAGMGHLTPFLRLAASLVQHHCRVTLITTYPTVSLAETQHVSHFLSAYPQVTEKRFHLLPFDPNSANATDPFFLRWEAIRRSAHLLAPLLSPPLSALITDVTLISAVLPVTINLHLPNYVLFTASARMFSLQASFPAIVASKSTSSGSVEFDDDFIEIPGLPPIPLSSVPPDVMDSKSLFATSFLENGNSFVKSNGVLINSFDALEADTLVALNGRRVVAGLPPVYAVGPLLPCEFEKRDDPSTSLILKWLDDQPEGSVVYVSFGSRLALSMEQTKELGNGLLSSGCRFLWVVKGKTVDKEDEESLKNVLGHELMEKIKDQGLVVKNWVDQDKVLSHRAVGGFVSHGGWNSLVEAARHGVPVLVWPQFGDQKINAEAVESAGLGMWVRSWGWGTELRAKGDEIGLKIKDLMANDFLREQAKRIEEEARKAIGVGGSSERTFKELIDKWKCNNNTH
Purified protein
  Km: 375 ± 72 µM
  kcat: 0.04075 ± 0.0016 s⁻¹

B2: FcCGT (Citrus japonica; M145A/V118D) (protein)
chain: B1 chain with V118D, M145A, Q149T, D189A
[2]
  Km: 1064 ± 151 µM
  kcat: 0.05323 ± 0.00218 s⁻¹

B3: NnGT (Nelumbo nucifera; C156Q/L197D/S126P) (protein)
chain: MEMSSSSDLQILPPHVALLPSSGMGHLVPFVRLAAALARRNCLVTFITTHPTVSLSESRLVSRLLSAFPHVTPLEFHLLPLDHSTANSKDPFFLQFEAIRRSAHLLSPLLSSCSDPPLSALITDVPLASAFISITDELRLPNYILFTSSAWMLSLQLNFPTFVVNTSTNLSGGSATASDDIEIPGVPPVPKSWLPPDLLDLSNLFTTQFMANGQELIKSNGILINTFGNAEQATVAALNEGKVVNGLPPVTKIGPLAPCEFEKGSSVEWLDGQPAGSVLYVSFGSRTAMSREQIRELGDGLVRSGCRFLWVVKDKKVDREDEEELGGIVGQELMERMKDNGLVVKNWVDQGVVLAHPAVGGFLSHCGWNSVTEAAWNGVPVLAWPQHGDQSINAQVMEKSGIGMWVKSWGWGRTEVVKGEEIGQKIGEMMGNDRLKAQAANIREESRRAVEVGGGSYKELEGIIEKWKISRI
[3]
  Km: 319 ± 61 µM
  kcat: 0.00872 ± 0.000567 s⁻¹

B4: GjGTa (Gardenia jasminoides; A142M/F116S/F117P) (protein)
chain: MENTLVLYPAPGIGHMISMLELAKLILRHYSNKFSRIHILINTGFRDMKSTYLDHISSTNPSIVVHQFPFIQADLSSSLSPPAIGFKFIRKNAPNVHHALQEISKTSSIRALIIDSPCTSAMPYSNNLGIPVYYFFTSGAAMVALFLYFPTIHKQTSESFKDLVQTKFDVPGLPPIPATQMPEPVLDRDDPAYDDILYYSVHLPKSSGIIVNTFDELEPIALKAITDGLCVPDAPTPPLYNIGPLIADADSRPAIDGDKGIDLDQSDCFSWLDRQPDQCVVFLCFGSRGTFSVEQIKEIAKGLERSGKRFLWVVKKPLRNNKSKQVEGSGGFEIDSILPERFLEKTKGIGLVVKSWIPQLQVLRHPAVGGFVTHCGWNSTLEAVVAGVPLVAWPLHAEQHVNMAALVQDMKMAIPVEQGDDGIVRGEEVEKRVRELMDSERGRELRKLSQKTRDIAAESGVHLGSSSTALASLIHVVFGN
[4]
  Km: 12 ± 0.5 µM
  kcat: 0.00035 ± 1.2e-06 s⁻¹
